Test results from patent US9074002B2, “PTP1B inhibitors” (Cold Spring Harbor Laboratory, priority 2009, dated 2015).
Entries after “also recorded” stand apart in the source; their conditions may differ.

B1: scFv136: additional scFv, SEQ ID NO: 153 and 160 (protein)
scFv: MKKTAIAIAVALAGFATVAQAALTQPSSVSANPGETVKITCSGGSYSYGWYQQKSPGSAPVTVIYSSDKRPSDIPSRFSGSKSGSTSTLTITGVQAEDEAVYYCGSRDSNYVGIFGAGTTLTVLGQSSRSSTVTLDESGGGLQTPGGALSLVCKASGFTFSSYEMQWVRQAPGKGLEFVAAISSDGSYTNYGAAVQGRATISRDNGQSTVRLQLSNLRAEDTATYYCARSPGGYTWWPGAAGGIDAWGHGTEVIVSSTSGQAGQHHHHHHGAYPYDVPDYAS
B2: scFv106: scFv binding PTP1B-OX, SEQ ID NO: 29 and 133 (protein)
scFv: MKKTAIAIAVALAGFATVAQAALTQPSSVSANPGETVKITCSGDSSDYGYGWYQQKSPGSAPVTVTYSNNQRPPNIPSRFSGSASGSTATLTITGVQVEDEAVYYCGSEDSTTDAVFGAGTTLTVLGQSSRSSAMTLDESGGGLQTPGGALSLVCKASGFTFSSYDMGWVRQAPGKGLEYVAGITNDGRYASYGSAVDGRATISRDNGQSTVRLQLNNLRAEDTGTYYCARDDGSGWTGNTIDTWGHGTEVIVSSTSGQAGQHHHHHHGAYPYDVPDYAS
B3: scFv64: scFv binding PTP1B-OX, SEQ ID NO: 28 and 97 (protein)
scFv: MKKTAIAIAVALAGFATVAQAALTQPSSVSANPGDPLKITCSGDSSGYGYGWYQQKSPGSAPVTVIYNNNKRPSDIPSRFSGSKSGSTGTLTITGVQAEDEAVYFCGSEDSNTDAVFGAGTTLTVLGQSSRSSTVTLDESGGGLQTPGGTLSLACKASGFTFSGYDMGWVRQAPGKGLEYVAGITSDGRYASYGSAVDGRAAIWRDNGQSTVRLQLKNLRTEDTATYYCARNDGSGWNGNNIDAWGHGTEVIVSSTSGQAGQHHHHHHGAYPYDVPDYAS

Legend:
[1] = target: T1, endogenous PTP1B-OX (Homo sapiens, UniProt P18031); assay: Intrabody interaction in 293T cells treated with H2O2 (Ni-NTA pull down / anti-PTP1B immunoprecipitation); type: cell-based; details: 1 mM H2O2 5 minutes
T1 construct: endogenous in cells; host or cells: 293T cells (transfected only with the scFv intrabody)
T1 sequence (P18031 1-435): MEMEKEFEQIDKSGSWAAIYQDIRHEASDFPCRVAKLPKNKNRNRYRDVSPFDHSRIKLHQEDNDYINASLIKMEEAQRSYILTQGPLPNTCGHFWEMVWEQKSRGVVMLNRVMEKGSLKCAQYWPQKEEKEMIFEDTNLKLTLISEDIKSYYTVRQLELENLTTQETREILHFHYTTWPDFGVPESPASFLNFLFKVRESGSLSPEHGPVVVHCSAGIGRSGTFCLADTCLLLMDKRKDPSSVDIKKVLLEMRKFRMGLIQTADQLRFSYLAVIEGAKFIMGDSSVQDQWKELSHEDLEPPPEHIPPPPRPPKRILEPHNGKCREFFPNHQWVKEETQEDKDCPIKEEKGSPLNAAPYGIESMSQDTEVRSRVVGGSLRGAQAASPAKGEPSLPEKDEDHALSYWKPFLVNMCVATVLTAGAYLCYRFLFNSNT
Protocol: (§1) One of the positive candidate scFvs (scFv45) was cloned in pcDNA3.2/V5-GW/D-TOPO expression vector and transiently expressed in mammalian cells as stable intracellular antibody (aka intrabody) (FIG. 10). To detect PTP1B-OX and scFv45 interaction in mammalian cells, scFv45 was overexpressed in 293T cells as described herein (See Example 4) and 48 hours post transfection the cells were serum-starved for 16 hours in growth medium (DMEM, low glucose) without serum (FBS), then incubated with 1 mM H2O2 (in growth medium without serum) for 5 minutes at 37° C. or treated with 20 mM NAC (in growth medium without serum) for 1 hour at 37° C. Cells treated with H2O2 were washed twice with cold (4° C.) PBS and lysed in lysis buffer (25 mM HEPES, pH 7.4, 150 mM NaCl, 0.25% Deoxychloate, 1% TritonX-100, 25 mM NaF, 10 mM MgCl2, 1 mM EDTA, 10% Glycerol, 0.5 mM PMSF, 10 mM Benzamidine, protease inhibitor cocktail). Cells treated with NAC were lysed with lysis buffer containing 2 mM TCEP to ensure a post-lysis reducing environment. Interaction between PTP1B and intrabody45 were tested by pulling down the protein complex from 1 mg of total cell lysate with Ni-NTA agarose or by immunoprecipitating PTP with anti-PTP1B (FG6). For the pull down experiment, Ni-NTA agarose beads were incubated with the lysates (both oxidized and reduced) at 4° C. Protein complex bound to the Ni-NTA agarose beads was pulled down and washed three times; first with lysis buffer containing 20 mM imidazole followed by two more washes with wash buffer (PBS, pH 7.4, 20 mM imidazole, 0.05% BSA, 0.05% Tween-20 and protease inhibitors). Applicant used 20 mM imidazole in the wash buffer to reduce the non-specific binding of proteins with the Ni-NTA agarose beads. The complex was eluted with wash buffer containing 500 mM imidazole with gentle shaking at 4° C. and the eluate was mixed with SDS sample buffer with DTT. For the immunoprecipitation experiments, 1 mg of total cell lystates (both oxidized and reduced) was incubated with anti-PTP1B antibody (FG6) at 4° C. The interacting protein complex was immunoprecipitated after incubating the lysate-antibody mixture with protein A/G Sepharose at 4° C. After immunoprecipitation, Sepharose beads were washed three times; first with lysis buffer followed by two more washes with wash buffer (PBS, pH 7.4, 0.05% BSA, 0.05% Tween-20 and protease inhibitors). The Sepharose beads were then heated at 90° C. in 2×SDS sample buffer with DTT. Proteins from the pulled down or immunoprecipitated complex were separated by SDS-PAGE. PTP was detected with anti-PTP1B antibody (FG6) and the intrabodies were detected with anti-HA (3F10)-HRP antibody [anti-HA (3F10)-HRP, Roche] by immunoblotting.
In the initial in vitro phosphatase screening assay using reversibly oxidized (with H2O2) recombinant PTP1B, Applicant found four different PTP1B-OX specific scFvs (scFv45, scFv57, scFv64 and scFv106) from the initial pool of 12 different scFvs. […] Applicant has also shown that scFv45, expressed as an intrabody in mammalian cells, can bind to endogenous PTP1B-OX but not endogenous PTP under reducing conditions. Further assessment was carried out to identify additional PTP1B-OX-specific intrabodies. Additional scFvs have been subcloned in pcDNA3.2/V5-GW/D-TOPO mammalian expression vector (FIG. 10) from their respective phagemid constructs. After transient overexpression of these scFvs as intrabodies in 293T cells, the interaction between endogenous PTP1B and these intrabodies in both H2O2-treated cells and cells was observed under reducing condition (treated with NAC and lysed with lysis buffer containing TCEP). […] All can be used in the methods and compositions described herein. Additional scFvs, such as some or all of the 137 selected individual scFvs from the library, can be similarly tested by in vitro screening and/or by binding assay in mammalian cells.

[2] = target: T2, endogenous PTP1B under reducing conditions (Homo sapiens, UniProt P18031); assay: Intrabody interaction in 293T cells under reducing condition (NAC, TCEP) (Ni-NTA pull down / immunoprecipitation); type: cell-based; details: 20 mM NAC, lysis buffer with 2 mM TCEP, FIGS. 11, 12
T2 construct: endogenous in cells; host or cells: 293T cells (transfected only with the scFv intrabody)
T2 sequence (P18031 1-435): T1 sequence (P18031 1-435)
Protocol: as §1
In the initial in vitro phosphatase screening assay using reversibly oxidized (with H2O2) recombinant PTP1B, Applicant found four different PTP1B-OX specific scFvs (scFv45, scFv57, scFv64 and scFv106) from the initial pool of 12 different scFvs. […] Applicant has also shown that scFv45, expressed as an intrabody in mammalian cells, can bind to endogenous PTP1B-OX but not endogenous PTP under reducing conditions. Further assessment was carried out to identify additional PTP1B-OX-specific intrabodies. Additional scFvs have been subcloned in pcDNA3.2/V5-GW/D-TOPO mammalian expression vector (FIG. 10) from their respective phagemid constructs. […]

[3] = target: T3, PTP1B-OX (Homo sapiens, UniProt P18031); assay: Inhibition of reactivation of reversibly oxidized PTP1B by reducing agent (RCML phosphatase assay); type: biochemical; details: PTP1B oxidized with H2O2, buffer exchange, TCEP added; FIG. 2
T3 construct: made in house; host or cells: E. coli BL21 (pET19b)
T3 sequence (P18031 3-277): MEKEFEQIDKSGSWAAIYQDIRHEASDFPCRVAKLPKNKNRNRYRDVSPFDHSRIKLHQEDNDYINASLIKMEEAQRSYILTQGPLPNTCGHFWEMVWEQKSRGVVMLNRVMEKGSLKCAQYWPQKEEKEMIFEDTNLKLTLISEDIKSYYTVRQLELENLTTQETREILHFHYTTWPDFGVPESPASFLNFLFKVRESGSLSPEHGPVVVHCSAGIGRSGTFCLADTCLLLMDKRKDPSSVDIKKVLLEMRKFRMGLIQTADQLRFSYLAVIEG
Protocol: (§2) Applicant's hypothesis was that scFvs that are able to bind to and stabilize the oxidized conformation of PTP1B in solution would inhibit reactivation by reducing agent, but have no direct inhibitory effect on phosphatase activity in assays in vitro. Activity was measured using ^32P-labeled pTyr-Reduced Carboxamidomethylated and Maleylated Lysozyme as substrate. Applicant established conditions in which wild type PTP1B could be reversibly oxidized in vitro. PTP1B was inactivated following addition of H2O2. […] Applicant validated this approach further, by testing the effects of expressing one of the scFvs (scFv45) as a single chain antibody fragment “intrabody” to PTP1B, using 293T cells as the expression system. This intrabody was expressed transiently and then tested for effects on insulin signaling, focusing initially on the tyrosine phosphorylation status of the beta-subunit of the insulin receptor and insulin receptor substrate (IRS-1).
(§3) Reduced carboxamidomethylated and maleylated lysozyme (RCML) was labeled with ^32P using recombinant GST-FER kinase to stoichiometries up to 0.8 (mol ^32P incorporated/mol of protein). This ^32P-Labeled phospho-tyrosyl RCML was used as the substrate in the in-solution phosphatase assay for screening the conformation sensor scFvs. Recombinant PTP1B was reversibly oxidized and transiently inactivated with H2O2 (5× molar excess of the protein). […] Purified bacterially expressed scFvs (100× molar excess of PTP1B) were incubated with PTP after H2O2 treatment and its removal and the effect of individual scFv on stabilizing the reversibly oxidized conformation was assessed by the phosphatase assay under reducing condition.
In a different experiment, conditions were established in which wild type PTP1B could be reversibly oxidized in vitro. […] Addition of the reducing agent alone had no substantial effect on PTP1B activity (FIGS. 1 and 2, “PTP1B”).

[4] = target: T4, PTP1B (reduced, active) (Homo sapiens, UniProt P18031); assay: Direct effect of scFvs/antibodies on PTP1B phosphatase activity (32P-pTyr-RCML substrate); type: biochemical; details: 32P-labeled pTyr-RCML substrate, FIG. 1
T4 construct: made in house; host or cells: E. coli BL21 (pET19b)
T4 sequence (P18031 3-277 limits assumed): T3 sequence (P18031 3-277)
Protocol: as §2, §3
In order to screen the isolated scFvs for those that inhibit reactivation of PTP1B-OX by reducing agent, but have no direct inhibitory effect on phosphatase activity in assays in vitro, the effect of six scFvs (scFv20, scFv34, scFv45, scFv57, scFv64 and scFv106) on PTP1B activity was determined. PTP1B activity was measured using 32P-labeled pTyr-Reduced Carboxamidomethylated and Maleylated Lysozyme as substrate (FIGS. 1 and 2). Addition of the reducing agent TCEP alone had no substantial effect in PTP1B activity was assessed.

Row | Molecule | binding of intrabody to endogenous PTP1B-OX ([1]; FIGS. 11, 12) | binding of intrabody to endogenous PTP1B-OX ([1]; FIGS. 11, 12, listed as scFv 136) | binding of intrabody to endogenous PTP1B under reducing conditions [2] | inhibition of reactivation of PTP1B-OX by reducing agent (restoration of PTP1B activity after reversible oxidation) [3] | direct effect on PTP1B activity [4]
1 | B1 | co-pulldown of PTP1B-OX in the presence of H2O2 | bound weakly to PTP1B-OX | not in the presence of NAC and TCEP | – | –
2 | B2 | bound to endogenous PTP1B-OX strongly; also recorded: co-pulldown of PTP1B-OX in the presence of H2O2 | – | not in the presence of NAC and TCEP | substantial inhibition of the restoration of PTP1B activity | no direct inhibition of PTP activity
3 | B3 | bound weakly to PTP1B-OX | – | – | substantial inhibition of the restoration of PTP1B activity | no direct inhibition of PTP activity
